Assay results published in publication PMC7116205.

Legend:
[1] = molecular target: VAMP2 (1-116) (mouse)
[2] = molecular target: syntaxin 1A 1-288 (rat)
Chain of syntaxin 1A 1-288 (rat) (P32851 whole entry T251I): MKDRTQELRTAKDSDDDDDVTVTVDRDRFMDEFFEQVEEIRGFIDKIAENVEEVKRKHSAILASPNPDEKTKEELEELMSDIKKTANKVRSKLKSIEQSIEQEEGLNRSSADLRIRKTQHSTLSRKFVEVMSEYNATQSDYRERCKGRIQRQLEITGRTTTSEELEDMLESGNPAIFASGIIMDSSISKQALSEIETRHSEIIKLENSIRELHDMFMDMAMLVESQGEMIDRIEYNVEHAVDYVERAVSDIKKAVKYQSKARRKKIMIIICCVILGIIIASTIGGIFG

Chain of VAMP2 (1-116) (mouse) (P63044 other isoform, or with tags, fused parts or gaps): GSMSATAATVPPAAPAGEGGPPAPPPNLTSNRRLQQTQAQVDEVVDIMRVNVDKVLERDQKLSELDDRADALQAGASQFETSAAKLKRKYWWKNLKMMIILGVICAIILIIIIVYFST

share of the cross-links that stay SDS sensitive (not in SDS-resistant cis v/t-SNARE complexes) after Ca2+ [1] [%]	share of the cross-links that are SDS sensitive (not in SDS-resistant cis v/t-SNARE complexes) after Ca2+, unboiled samples [2] [%]	Substance
74	–	CpxII A40BPA (natural protein)
–	14	CpxII H52BPA (natural protein)
